This passage reports Kd and Km results from paper PMC8660799, “Cryo-EM reveals unique structural features of the FhuCDB Escherichia coli ferrichrome importer” (Communications Biology, 2021).

Data set [1] has as its target BtuF (Escherichia coli) (UniProt P37028). To be noted: cited from earlier work.
Data set [2] shares this target. To be noted: cited from earlier work. This is another data set of the same source.
Substrate in data set [3]: Nc1ncnc2c1ncn2[C@@H]1O[C@H](COP(=O)(O)OP(=O)(O)OP(=O)(O)O)[C@@H](O)[C@H]1O
Description: ATPase assay in proteoliposomes, malachite green phosphate detection. It counts as biochemical, Escherichia coli. The settings on record: MgCl2, 37 °C.

Data set [4] deals with T1, FhuCB subcomplex (membrane subunit FhuB and cytosolic ATPase FhuC of the ferrichrome importer), wild type (Escherichia coli, UniProt P07821 1-265; P06972 1-660, red-tris-NTA 2nd generation dye on the His-tag (in the MST experiments)).
T1 construct: cloned from the genome with the operon; a thrombin site stands between the His-tag and FhuC; Made from FhuCB-pET15b (FhuD gene deleted from FhuCDB-pET15b); The copy numbers (two FhuC, one FhuB) are told for the FhuCDB structure; In the gel filtration experiment the same chains came from the FhuCDB construct, co-expressed with FhuD; also called Fhu importer; wild-type FhuCB; source: E. coli …
T1 sequence (looked up) 1: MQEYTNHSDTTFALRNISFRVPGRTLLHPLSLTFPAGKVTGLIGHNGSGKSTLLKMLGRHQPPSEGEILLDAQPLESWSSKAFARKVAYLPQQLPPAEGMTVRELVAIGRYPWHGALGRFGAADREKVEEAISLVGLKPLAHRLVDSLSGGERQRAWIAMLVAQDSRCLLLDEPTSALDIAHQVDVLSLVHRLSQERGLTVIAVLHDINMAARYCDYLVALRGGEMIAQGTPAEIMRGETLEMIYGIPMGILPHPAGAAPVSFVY
T1 sequence (looked up) 2: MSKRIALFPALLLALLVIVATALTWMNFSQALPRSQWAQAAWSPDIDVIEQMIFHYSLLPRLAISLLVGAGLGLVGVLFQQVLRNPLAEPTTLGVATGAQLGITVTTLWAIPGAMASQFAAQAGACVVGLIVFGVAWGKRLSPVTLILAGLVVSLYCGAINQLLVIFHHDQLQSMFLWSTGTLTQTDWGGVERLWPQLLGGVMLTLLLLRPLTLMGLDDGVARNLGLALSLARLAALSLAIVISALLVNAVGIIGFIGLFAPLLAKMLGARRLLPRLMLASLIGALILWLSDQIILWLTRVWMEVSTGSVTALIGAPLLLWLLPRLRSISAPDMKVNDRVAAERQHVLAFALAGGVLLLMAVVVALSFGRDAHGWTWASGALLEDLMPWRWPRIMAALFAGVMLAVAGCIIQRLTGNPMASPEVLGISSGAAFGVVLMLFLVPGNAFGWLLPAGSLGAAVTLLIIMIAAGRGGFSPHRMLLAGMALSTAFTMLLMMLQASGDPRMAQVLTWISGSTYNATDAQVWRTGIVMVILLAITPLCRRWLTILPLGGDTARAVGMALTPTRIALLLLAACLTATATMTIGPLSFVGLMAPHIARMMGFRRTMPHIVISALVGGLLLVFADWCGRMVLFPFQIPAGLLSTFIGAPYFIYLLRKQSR
Description: MST; 40 nM FhuCB in detergent, His-tag labelled with red-tris-NTA 2nd generation dye; serial dilution of 1.6 μM FhuD with substrate ferrichrome; with ATP; Monolith NT.115pico, 20% LED power, medium MST power. The settings on record: both partners purified.

Data set [5] has as its target T1, FhuCB subcomplex (membrane subunit FhuB …). Nature of the data set: MST; 40 nM FhuCB in detergent, His-tag labelled with red-tris-NTA 2nd generation dye; serial dilution of 1.6 μM FhuD with substrate ferrichrome; without ATP-Mg; Monolith NT.115pico, 20% LED power, medium MST power. To be noted: both partners purified.

Like-named read-outs stand apart in the source and are kept apart here.

Chain of BtuF (Escherichia coli) (P37028 23-266): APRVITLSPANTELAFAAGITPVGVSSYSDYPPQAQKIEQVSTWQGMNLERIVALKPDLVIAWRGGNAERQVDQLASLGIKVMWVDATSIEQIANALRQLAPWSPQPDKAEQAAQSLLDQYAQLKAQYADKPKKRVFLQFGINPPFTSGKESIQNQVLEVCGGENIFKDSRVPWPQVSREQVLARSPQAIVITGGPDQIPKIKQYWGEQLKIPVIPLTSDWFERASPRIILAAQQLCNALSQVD

By Kd is commonly meant a measure of binding affinity in units of concentration. Consider BtuCD (from UniProt P06609), for which the Kd was 0.00012 nM in the data set with BtuF (Escherichia coli) [1] and 21.1 nM with BtuF (Escherichia coli) [2].

B1: FhuCB subcomplex (Escherichia coli K-12) (protein)
chain: MQEYTNHSDTTFALRNISFRVPGRTLLHPLSLTFPAGKVTGLIGHNGSGKSTLLKMLGRHQPPSEGEILLDAQPLESWSSKAFARKVAYLPQQLPPAEGMTVRELVAIGRYPWHGALGRFGAADREKVEEAISLVGLKPLAHRLVDSLSGGERQRAWIAMLVAQDSRCLLLDEPTSALDIAHQVDVLSLVHRLSQERGLTVIAVLHDINMAARYCDYLVALRGGEMIAQGTPAEIMRGETLEMIYGIPMGILPHPAGAAPVSFVY
notes: full-length FhuB and FhuC without FhuD; N-terminal His-tag and thrombin site on FhuC; pET15b, E. coli BL21(DE3) C43; purified in LMNG, reconstituted in E. coli polar lipid proteoliposomes; with Iron(3+)-hydroxamate import system permease protein FhuB
In general, Km refers to the concentration of substrate that gives half-maximal velocity. As to B1, the Michaelis constant (Km) in data set [3] (Michaelis-Menten fit with Hill coefficient (cooperative), no FhuD) was 690 ± 80 µM.

B2: FhuCB + FhuD (ATPase assay) (Escherichia coli K-12) (protein)
chain: MQEYTNHSDTTFALRNISFRVPGRTLLHPLSLTFPAGKVTGLIGHNGSGKSTLLKMLGRHQPPSEGEILLDAQPLESWSSKAFARKVAYLPQQLPPAEGMTVRELVAIGRYPWHGALGRFGAADREKVEEAISLVGLKPLAHRLVDSLSGGERQRAWIAMLVAQDSRCLLLDEPTSALDIAHQVDVLSLVHRLSQERGLTVIAVLHDINMAARYCDYLVALRGGEMIAQGTPAEIMRGETLEMIYGIPMGILPHPAGAAPVSFVY
notes: FhuCB (N-terminal His-tag and thrombin site on FhuC) in proteoliposomes with purified FhuD enclosed; with Iron(3+)-hydroxamate import system permease protein FhuB
For the molecule B2, the Km in data set [3] (Michaelis-Menten fit with Hill coefficient, 1 μM FhuD enclosed, no ferrichrome) was found to be 740 ± 50 µM.

B3: FhuD, periplasmic substrate-binding protein, expressed alone (natural protein, Escherichia coli, UniProt P07822 31-296, looked up)
chain: AAIDPNRIVALEWLPVELLLALGIVPYGVADTINYRLWVSEPPLPDSVIDVGLRTEPNLELLTEMKPSFMVWSAGYGPSPEMLARIAPGRGFNFSDGKQPLAMARKSLTEMADLLNLQSAAETHLAQYEDFIRSMKPRFVKRGARPLLLTTLIDPRHMLVFGPNSLFQEILDEYGIPNAWQGETNFWGSTAVSIDRLAAYKDVDVLCFDHDNSKDMDALMATPLWQAMPFVRAGRFQRVPAVWFYGATLSAMHFVRVLDNAIGGKA
notes: the gene was amplified and cloned into pET15b; Used without substrate and loaded with the small molecule ferrichrome (told apart by the assays); also called SBP; ferrichrome-loaded FhuD
B3: the results for the Kd in data set [4] and in data set [5] were approximately 1.03 nM and approximately 12.2 nM, respectively.
